Laboratory results published in US20050287132A1, “Biliverdin reductase fragments and variants, and methods of using biliverdin reductase and such fragments and variants” (University of Rochester, priority 1999, published 2005).

Key:
[1] = Reductase activity of BVR purified from rat liver; format: biochemical; conditions: purified to homogeneity
Protocol: BVR was purified from rat liver to homogeneity (3,000 nmol bilirubin/min/mg protein) as described before (O'Carra et al., J. Biochem. 125:110P (1971), which is hereby incorporated by reference), with modifications (Huang et al., J. Biol. Chem. 264:7844-7849 (1989), which is hereby incorporated by reference). Activity was determined at pH 8.7 with NADPH in Tris-HCl with […] in potassium phosphate buffer. The substrate concentration was 5 μM. The rate of activity was measured by the increase in 450 nm absorbance at 25° C. The purified reductase, which was judged to be homogenous by SDS-PAGE, stained with Coomasie Brilliant Blue (Sigma), was used for preparation of polyclonal antibody in New Zealand rabbits (O'Carra et al., J. Biochem. 125:110P (1971), which is hereby incorporated by reference). Protein concentration was determined by Bradford's method (Bradford, Anal. Biochem. 72:248-254 (1976), which is hereby incorporated by reference).

[2] = target: T1, biliverdin reductase (Rattus norvegicus, UniProt P46844); assay: Autophosphorylation of biliverdin reductase, in blot method with [γ^32P]-ATP; format: biochemical; conditions: PVDF bound, denatured/renatured
T1 sequence (P46844 3-295): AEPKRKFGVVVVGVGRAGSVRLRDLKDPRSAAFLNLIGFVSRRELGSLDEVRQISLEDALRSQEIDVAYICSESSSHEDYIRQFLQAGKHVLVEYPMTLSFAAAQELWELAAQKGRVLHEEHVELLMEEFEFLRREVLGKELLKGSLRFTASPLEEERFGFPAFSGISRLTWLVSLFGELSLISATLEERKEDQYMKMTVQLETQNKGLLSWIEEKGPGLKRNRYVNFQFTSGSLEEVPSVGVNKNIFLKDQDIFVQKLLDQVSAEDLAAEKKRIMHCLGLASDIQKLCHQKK
Excerpt: The ability of the reductase to phosphorylate itself was examined using the in blot method of Ferrell and Martin (Ferrell et al., Methods Enzymol. 200:430-435 (1991), which is hereby incorporated by reference). Purified wild type or mutant proteins were used.
The ability of the reductase to phosphorylate itself was examined using the in blot method of Ferrell et al., Methods Enzymol. 200:430-435 (1991), which is hereby incorporated by reference. Following electrophoresis on 12.5% SDS-PAGE plus thioglycolate (0.002%), the protein was transferred to PVDF membrane (Millipore). The blot was denatured for I h at room temperature in 7 M guanidine-HCl (pH 8.3) containing 50 mM Tris-base, 50 mM dithiothreitol and 2 mM EDTA and the bound protein was allowed to renature overnight at 4° C. then incubated at room temperature for 4 h in freshly prepared labeling mix containing 10 μCi/ml [γ^32P]-ATP. The membrane first with 30 mM Tris-HCl (pH 7.4) then for 10 min each with 250 ml of the following: with 30 mM Tris-HCl (pH 7.4) twice; with the same buffer containing 0.5% (v/v) NP-40 once; with the Tris buffer twice; with 1 M KOH once; with the Tris buffer, twice . The membrane was blotted, dried, wrapped in plastic wrap, and exposed for autoradiography.

[3] = target: T1, biliverdin reductase; assay: Western blot analysis of phosphorylation of purified rat liver BVR; format: biochemical; conditions: individual anti-phosphotyrosine, -serine, -threonine antibodies
Protocol: 2D-IEF was performed essentially as detailed previously (Huang et al., J. Biol. Chem. 264:7844-7849 (1989), which is hereby incorporated by reference). The first dimension separation of 3.5 μg of the reductase was carried out by isoelectric focusing (Righetti et al., J Chromatogr. 98:271-321 (1974), which is hereby incorporated by reference) using ampholytes with a 4-6.5 pH range. Electrofocusing was carried out for 17 h at 400 volts then for an additional hour at 800 volts. After focusing, the second dimension separation was carried out using 12.5% SDS polyacrylamide gel. […] The secondary antibody was goat anti-rabbit horseradish peroxidase (Zymed) at a 1:1000 dilution. Detection was carried out using the ECL reagent kit (NEN) according to the manufacturer's instructions. Phosphorylation molecular weight markers were used (Zymed). Soybean trypsin inhibitor (pI 4.55), β-lactoglobin A (pI 5.13), bovine carbonic anhydrase (pI 5.85), and human carbonic anhydrase B (pI 6.57) were used as IEF standards. Immunoblotting was performed by the method of Towbin et al, Proc. Nat. Acad. Sci. USA 76:4350-4354 (1979), which is hereby incorporated by reference. Primary and secondary antibody treatments and staining for peroxidase with 4-chloro-1 -naphthol were performed as described previously (Huang et al., J. Biol. Chem. 264:7844-7849 (1989), which is hereby incorporated by reference).

[4] = test system: MBP; conditions: ^32P incorporation
Protocol: Kinase reactions were carried out based on the assay as described by Roskoski (Roskoski, Methods Enzymol. 99:3-6 (1983), which is hereby incorporated by reference) in a 50 μl volume in a reaction buffer consisting of 20 mM Tris HCl (pH 7.4) containing 10 mM MgCl2, 50 mM unlabeled ATP, 5 μCi [γ^32 P]-ATP and 1 mg/ml substrate. Substrates used were prepared as 10 mg/ml stock in 0.2 M Tris-HCl (pH 7.4) and stored at -20° C. The substrates utilized were MBP and histone III-S (Sigma) and E. coli expressed purified preparations of full length rat HO-1 and HO-2 (McCoubrey et al., J. Biol. Chem. 272:12568-12574 (1997), which is hereby incorporated by reference). The substrate/reaction buffer was incubated at 30° C. for 4 min prior to the addition of 5 μl of enzyme source (2 mg/ml BVR, 0.5 μg/ml PKC) or enzyme vehicle (GST-PBS containing 10% glycerol). Samples were mixed by aspiration and were then incubated for 8-15 min at 30° C. An aliquot (40 μl) from the reaction mixture was spotted onto a P81 (Whatman) filter, which was immediately immersed in 75 mM phosphoric acid for ≧5 min. Filters were washed 5× for 5 min each in 75 mM phosphoric acid and then 1× for 5 min with acetone before being air dried and counted by liquid scintillation counting in 10 ml ScintiVerse BD (Fisher). […] Activity was determined as ^32P counts incorporated into the acceptor protein per minute. […]

[5] = test system: PKC; assay: Effect of BVR and peptides on PKC activity (MBP substrate, kinetic analysis); format: biochemical
Protocol: FIGS. 11A-C are graphs depicting the role of BVR in increasing protein kinase C activity. FIG. 11A depicts the dose-dependence of PKC activity in the presence of BVR or PKC inhibitor peptide (“PKCI”) in an assay system containing 0.5 μg/ml PKC, 50 μM unlabeled ATP, 5 μCi[^32γP]-ATP and 1 mg/ml MBP and carried out as described infra. FIGS. 11B-C are the kinetic analyses of PKC activity carried out with respect to MBP (FIG. 11B) and with respect to ATP (FIG. 11C) in the presence or absence of 50 μM BVR.
FIGS. 12A-C are graphs illustrating the effect of various rBVR fragments on PKC activity. Protein kinase C was incubated at 30° C. with buffer or with the indicated peptides (50 μM) for 15 min prior to addition to a kinase assay using MBP as substrate. FIG. 12A depicts the relative activity for each sample normalizing to that of the PKC and buffer control value. FIGS. 12B-C are the kinetic analyses of PKC with respect to substrate MBP (FIG. 12B) and ATP (FIG. 12C) in the presence or absence of BVR peptide fragments (50 μM). BVR1 peptide corresponds to SEQ. ID. No. 34 and BVR2 peptide corresponds to SEQ. ID. No. 19.
(§1) Incubation time was 8 min at 30° C.

[6] = test system: PKC (a mixture containing equal amounts of isozymes α, β and γ); assay: Overlay assay for PKC binding by rat BVR; conditions: 2 μg rat liver BVR, 500 ng/ml PKC
Protocol: The physical interaction of BVR with PKC was assessed using an overlay assay based on that described by Wolf and Sahyoun (J. Biol. Chem. 261:13327-13331 (1986), which is hereby incorporated by reference) with known modifications (Chapline et al., J. Biol. Chem. 268:6858-6861 (1993), which is hereby incorporated by reference). Purified rat liver BVR (2 μg) was subjected to SDS-PAGE and transferred to nitrocellulose membrane. The membrane was blocked, washed, and then overlaid with a solution containing 500 ng/ml of PKC (a mixture containing equal amounts of isozymes α, β and γ) (Promega) in TBS containing 10 mg/ml BSA, 20 μg/ml phosphatidylserine, 1 mM EGTA, 1.2 mM CaCl2, 10 μg/ml leupeptin and 10 μg/ml aprotinin. After incubation for 1 h at room temperature, the blot was extensively washed with the PBS containing the same supplements as the overlay solution, but lacking the kinase mixture. The protein on the membrane was fixed by incubation in 0.5% formaldehyde in PBS and then reactive aldehyde groups were blocked by incubation in 2% glycine in TBS for 20 min at room temperature. The membrane was then washed 3 times with TBS and was cut in two, one half was subjected to Western blot analysis using a 1:1000 dilution of anti-PKC for 2 h at room temperature as the primary antibody, while the second half was probed with rabbit anti-rat BVR as detailed above for Western blotting. […]

[7] = test system: histone III-S; assay: BVR kinase activity, 32P incorporation into exogenous substrate; format: biochemical
Protocol: as §1

[8] = test system: HO-1; assay: as above; format: biochemical, rat
Protocol: as §1

[9] = test system: HO-2; assay: as above; format: biochemical, rat
Protocol: as §1

[10] = in the presence of 50 μM BVR or peptide

B1: BVR: rat biliverdin reductase, SEQ. ID. No. 4, purified from rat liver (Example 3) (protein, listed as Rattus norvegicus)
chain: MDAEPKRKFGVVVVGVGRAGSVRLRDLKDPRSAAFLNLIGFVSRRELGSLDEVRQISLEDALRSQEIDVAYICSESSSHEDYIRQFLQAGKHVLVEYPMTLSFAAAQELWELAAQKGRVLHEEHVELLMEEFEFLRREVLGKELLKGSLRFTASPLEEERFGFPAFSGISRLTWLVSLFGELSLISATLEERKEDQYMKMTVQLETQNKGLLSWIEEKGPGLKRNRYVNFQFTSGSLEEVPSVGVNKNIFLKDQDIFVQKLLDQVSAEDLAAEKKRIMHCLGLASDIQKLCHQKK
specific activity of purified rat liver BVR [1]: 3,000 nmol bilirubin/min/mg protein
autophosphorylation [2]: able to phosphorylate itself
phosphoamino acids present [3]: esterified on tyrosine (panel b), serine (panel c), and threonine (panel d) residues
phosphate transferred by BVR to MBP [4]: ~4,000 cpm/min
effect on Km of the PKC reaction with respect to ATP ([5]; BVR 50 μM): negligible
dose dependence of PKC activity (^32P into MBP) ([5]; PKC preincubated 15 min at 30° C., MBP substrate): increased in a dose-dependent manner
Vmax of the PKC reaction with respect to ATP [5, 10]: 2.9 pmol/min
Vmax of the PKC reaction with respect to MBP [5, 10]: 4.9 pmol/min
substrate Km of the PKC reaction ([5]; upon addition of BVR (50 μM), MBP): 0.16 mg/mL
PKC binding (overlay, anti-PKC Western) [6]: PKC-interactive protein
phosphate transferred by BVR to histone III-S [7]: ~1,000 cpm/min
HO-1 as substrate for BVR phosphotransferase activity [8]: not substrates
HO-2 as substrate for BVR phosphotransferase activity [9]: not substrates
